We go through three substances from patent US20250270289A1, “SEQUENCE-DEFINED POLYMERS WITH ONE OR MORE AZIDES, METHODS OF MAKING, AND METHODS OF USE THEREOF” (Yale University, priority 2021, published 2025).

The target in experiment [1] is GST-Src SH2 [GST: P08515]. The experiment is described as follows: fluorescence polarization, GST-Src SH2 titrated on 10 nM FITC-pTyrEEI, one-site binding model.
For experiment [2], the target named is GST-Src SH2 [GST: P08515]. As to the kind of experiment: fluorescence polarization competition; competitor FITC-pTyrEEI on GST-Src SH2. (In general: Polarisation of emitted light reports the rotation of a fluorescent probe.)
The target of experiment [3] is GST-Src SH2 [GST: P08515]. The experiment is described as follows: fluorescence polarization competition, EC50 of pnY peptide against that of pTyr peptide.

Chain of GST-Src SH2 [GST: P08515] (P08515 whole entry): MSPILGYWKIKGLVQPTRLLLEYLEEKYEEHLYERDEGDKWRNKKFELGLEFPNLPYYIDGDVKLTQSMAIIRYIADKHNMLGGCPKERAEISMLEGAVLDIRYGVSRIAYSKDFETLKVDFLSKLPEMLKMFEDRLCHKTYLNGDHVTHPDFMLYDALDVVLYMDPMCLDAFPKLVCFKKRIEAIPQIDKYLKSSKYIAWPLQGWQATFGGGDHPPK

One may read the Kd as a measure of binding affinity in units of concentration. Lower therefore signals higher affinity. FITC-pTyrEEI (peptide) had a Kd in experiment [1] of 280 nM.

Broadly, the EC50 is the concentration giving half of the maximal effect. pTyrEEI (peptide) gave an EC50 in experiment [2] of 740 nM.

For the substance pnYEEI (peptide), the EC50 in experiment [2] worked out at 12800 nM. In addition, in experiment [3], the Decrease in binding affinity with SH2 (against pTyr) is 17 fold.
